Assay results from patent US20120114667A1 (AstraZeneca / MedImmune, published 2012).
Residue numbers refer to the chain shown, from its start.

B1: 2F5.1A4 (antibody, IgG2, V domains shown)
VH: QMQLVQSGAEVKKPGASVKVSCKASGYTFTGYYMHWVRQAPGQGLEWMGWINTNSGGTNCAQKFQVRVTMTRDTSISTAYMELSRLRSDDTAVYYCARGRGYSSGWYDYWGQGTLVTVSS
VL: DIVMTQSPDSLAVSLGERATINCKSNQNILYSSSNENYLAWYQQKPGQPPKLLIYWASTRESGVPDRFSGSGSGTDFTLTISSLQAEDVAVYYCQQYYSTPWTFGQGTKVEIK
B2: 2E10.1B9 (antibody, IgG2, V domains shown)
VH: RVQLQESGPGLVKPTQTLSLTCTVSGGSIISGGYFWTWIRQHPGKGLEWIGYIYYSGSTYYSPSLKSRVTISVDTSKNQFSLKLSSVTAADTAVYYCTRAVPAAKGYYSYYGMDVWGQGTTVTVSS
VL: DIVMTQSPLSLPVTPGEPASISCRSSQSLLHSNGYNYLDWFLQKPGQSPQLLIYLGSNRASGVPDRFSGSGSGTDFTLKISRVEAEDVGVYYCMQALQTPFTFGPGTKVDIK
B3: 2A9.1A1 (antibody, IgG2, V domains shown)
VH: B2 VH
VL: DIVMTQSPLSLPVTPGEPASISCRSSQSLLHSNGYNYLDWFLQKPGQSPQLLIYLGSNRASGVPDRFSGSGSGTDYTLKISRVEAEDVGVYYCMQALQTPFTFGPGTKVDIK
B4: 3C2.2A8 (antibody, IgG2, V domains shown)
VH: B2 VH
VL: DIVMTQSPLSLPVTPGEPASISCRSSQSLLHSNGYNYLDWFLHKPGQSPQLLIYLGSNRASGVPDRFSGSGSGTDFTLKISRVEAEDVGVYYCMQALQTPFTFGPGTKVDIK
notes: also called mAb 3C2.2A8
B5: 3G11.1A6 (antibody, IgG2, V domains shown)
VH: B2 VH with G27S
VL: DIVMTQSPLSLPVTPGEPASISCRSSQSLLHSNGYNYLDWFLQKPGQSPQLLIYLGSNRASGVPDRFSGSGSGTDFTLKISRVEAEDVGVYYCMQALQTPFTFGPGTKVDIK
B6: 2C5.2B12 (antibody, IgG2, V domains shown)
VH: B2 VH
VL: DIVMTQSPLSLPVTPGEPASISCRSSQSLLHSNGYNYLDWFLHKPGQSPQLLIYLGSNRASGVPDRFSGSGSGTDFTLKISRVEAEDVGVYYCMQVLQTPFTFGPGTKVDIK
B7: 9E2.3A8 (antibody, IgG4, V domains shown)
VH: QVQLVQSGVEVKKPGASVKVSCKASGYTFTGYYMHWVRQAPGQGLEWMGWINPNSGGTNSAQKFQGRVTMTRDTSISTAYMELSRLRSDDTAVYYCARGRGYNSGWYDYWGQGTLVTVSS
VL: DIVMTQSPDSLAVSLGERATINCKSSQSVLHNSHNENYLTWYQQKPGQPPKLLIYWASSRESGVPDRFSGSGSGTDFTLSISSLQADDVAVYYCQQYFSNPWTFGQGTKVEIK
B8: 8A6.1A3 (antibody, IgG4, V domains shown)
VH: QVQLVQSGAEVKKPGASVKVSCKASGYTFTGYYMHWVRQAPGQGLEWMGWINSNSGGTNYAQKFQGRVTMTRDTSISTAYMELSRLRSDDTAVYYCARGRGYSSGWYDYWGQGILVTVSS
VL: B7 VL with L30F, H31F, N32S, H34S, S59T, S80T, D87E, F98Y, S99N, N100I
B9: 7B2.3B10 (antibody, IgG4, V domains shown)
VH: QVQLVESGGGVVQPGRSLRLSCAASGFTFSSYGMHWVRQAPGKGLEWVAVIWYDGSYKYYADSVQGRFTISRDNSKNTLYLQMNSLRAEDTAVYYCARDKGGHYFDYWGQGTLVTVSS
VL: DIQMTQSPSSLSASVGDRVTITCRASQSISSYLNWYQQKPGKAPKLLIYAASSLQSGVPSRFSGSGSGTDFTLTISSLQPEDFATYYCQQNFSFPPEWTFGQGTKVEIK

Assays:
[1] = target: T1, Macaque α5β1 (Macaque); assay: FACS on macaque PBMC, 1 mM Mn2+
T1 construct: whole, on cells; macaque species not specified; also called monkey α5β1; monkey integrin
Method: To determine whether the antibodies cross reacted to monkey integrin, binding to purified Macaque T-cells was assessed. Macaque PBMCs were previously purified from whole blood, and stored frozen. Macaque PBMCs were suspended in adhesion buffer with HBSS 1% BSA and 1 mM Mn2+ (“FACS buffer”), at a concentration of 4.8×10⁵ live cells per ml. 12.5 uL of the primary antibody was added to 37.5 ul of cells, and incubated at 4° C. for 1 hour. Positive and negative controls were included as indicated. 100 uL of FACs buffer is added to dilute out primary antibody, the cells washed and resuspended in the appropriate secondary at 2 ug/mL (50 uL) with 10 ug/mL 7AAD, and stained on ice for 7 minutes. 100 uL of FACs buffer was added and cells were washed twice in FACS buffer, finally the supernatant removed and the cells were resuspended in 100 uL of buffer.
Samples were read on HTS FACS machine and analyzed using Cell Quest Pro software. The data shown in Table 7 confirm that the antibodies cross react with monkey α5β1.

[2] = target: T2, α4β1 integrin on J6.77 Jurkat cells (UniProt P13612 34-1032; P05556 21-798); assay: cell-based or functional assay
[3] = target: T3, human α5β1 integrin (human, UniProt P08648 42-1049; P05556 21-798); assay: cell-based or functional assay
[4] = target: T2, α4β1 integrin on J6.77 Jurkat cells; assay: cell-based or functional assay; remark: listed apart in the source
[5] = target: T4, β1 integrin chain on HT29 cells (α5 null line) (human, UniProt P05556 21-798); assay: FACS on HT29 cells (no α5, β1 present)
T4 construct: whole, on cells; β1 is paired with alpha chains other than α5 on these cells; also called β1 chain; beta1
Method: To confirm the antibodies bind to the α5 chain or to the α5β1 heterodimer, binding to Human colon adenocarcinoma grade II cells (HT29 cells) was assessed by FACS. […] HT-29 cells were suspended in HBSS with 1% BSA and 1 mM final MnCL₂ at a concentration of 6×10⁵ cells/ml.12.5 uL of the primary antibody was added to 37.5 ul of cells and the plate incubated on ice for 60 minutes. A range of negative controls were included as described previously (indicated as below). In addition as a positive control antibodies to αvβ6 (Mab2077, Chemicon), α5β1 (Mab1909, Chemicon) and av (L230, Chemicon) were included. 100 uL of HBSS buffer was added to dilute primary antibody, the cells pelleted by centrifuging at 1500 rpm for 3 minutes and resuspended in 50 ul Goat anti-human IgG Fc Cy5 or Goat anti Mouse IgG Fc Cy5 secondary at 2 ug/mL. They were then incubated on ice for a further 7 minutes, and 100 uL of HBSS buffer was added to dilute secondary antibody. Finally cells were pelleted by centrifuging at 1500 rpm for 3 minutes, HBSS Buffer/secondary supernatant removed, washed twice in 100 ul of FACS buffer was added and the cells were resuspended and then read on a FACS Calibur HTS. Samples were analyzed using Cell Quest Pro software. The data is represented in Table 6 and confirm that the antibodies are selective for α5β1.

[6] = target: T3, human α5β1 integrin; assay: cell-based or functional assay; remark: listed apart in the source

T3 sequence (P08648 42-1049, chain 1 of 2): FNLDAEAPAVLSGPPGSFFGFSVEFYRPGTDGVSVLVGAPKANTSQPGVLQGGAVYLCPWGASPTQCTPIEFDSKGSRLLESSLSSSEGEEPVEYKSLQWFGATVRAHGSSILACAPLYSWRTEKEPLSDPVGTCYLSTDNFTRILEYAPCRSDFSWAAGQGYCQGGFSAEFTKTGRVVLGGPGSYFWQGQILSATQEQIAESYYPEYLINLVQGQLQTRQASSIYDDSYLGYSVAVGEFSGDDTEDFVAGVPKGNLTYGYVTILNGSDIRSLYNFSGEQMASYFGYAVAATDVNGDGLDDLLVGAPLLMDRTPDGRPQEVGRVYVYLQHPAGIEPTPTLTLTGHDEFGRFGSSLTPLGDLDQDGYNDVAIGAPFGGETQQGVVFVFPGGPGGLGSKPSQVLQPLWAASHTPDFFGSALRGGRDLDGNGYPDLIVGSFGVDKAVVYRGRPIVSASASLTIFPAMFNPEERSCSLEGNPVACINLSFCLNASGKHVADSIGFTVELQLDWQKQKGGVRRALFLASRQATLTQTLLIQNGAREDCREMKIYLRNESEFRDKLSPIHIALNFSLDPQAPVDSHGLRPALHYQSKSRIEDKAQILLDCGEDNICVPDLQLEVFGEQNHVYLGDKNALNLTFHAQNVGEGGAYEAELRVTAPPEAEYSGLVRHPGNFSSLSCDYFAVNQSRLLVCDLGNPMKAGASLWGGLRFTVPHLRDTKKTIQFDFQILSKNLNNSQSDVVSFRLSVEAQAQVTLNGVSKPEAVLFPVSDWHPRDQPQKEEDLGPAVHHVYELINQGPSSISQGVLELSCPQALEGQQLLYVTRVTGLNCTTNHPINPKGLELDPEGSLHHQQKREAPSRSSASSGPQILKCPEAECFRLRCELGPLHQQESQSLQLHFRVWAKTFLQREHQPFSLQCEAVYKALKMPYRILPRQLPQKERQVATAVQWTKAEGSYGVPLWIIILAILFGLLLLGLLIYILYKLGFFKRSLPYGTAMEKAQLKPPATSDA
T3 sequence (P05556 21-798, chain 2 of 2): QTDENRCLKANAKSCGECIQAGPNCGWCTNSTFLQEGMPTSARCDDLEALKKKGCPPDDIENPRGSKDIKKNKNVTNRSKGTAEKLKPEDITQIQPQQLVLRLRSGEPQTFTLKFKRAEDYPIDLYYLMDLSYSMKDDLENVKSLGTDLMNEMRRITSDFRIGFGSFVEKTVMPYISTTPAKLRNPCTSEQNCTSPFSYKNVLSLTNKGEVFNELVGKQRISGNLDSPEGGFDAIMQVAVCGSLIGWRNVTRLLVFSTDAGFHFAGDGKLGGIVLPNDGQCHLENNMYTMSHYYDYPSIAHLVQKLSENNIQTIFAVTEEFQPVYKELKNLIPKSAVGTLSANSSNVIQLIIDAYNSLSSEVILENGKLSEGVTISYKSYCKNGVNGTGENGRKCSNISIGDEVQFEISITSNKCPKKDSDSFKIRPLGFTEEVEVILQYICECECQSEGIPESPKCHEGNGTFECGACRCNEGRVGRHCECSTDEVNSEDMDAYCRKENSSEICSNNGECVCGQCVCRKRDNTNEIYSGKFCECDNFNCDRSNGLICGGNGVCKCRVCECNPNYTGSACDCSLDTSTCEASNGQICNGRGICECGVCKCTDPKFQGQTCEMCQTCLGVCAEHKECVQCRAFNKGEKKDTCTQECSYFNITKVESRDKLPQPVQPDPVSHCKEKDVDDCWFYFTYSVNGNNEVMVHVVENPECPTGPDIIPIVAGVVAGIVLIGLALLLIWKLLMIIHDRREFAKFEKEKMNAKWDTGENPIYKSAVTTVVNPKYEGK
T4 sequence (P05556 21-798): as the sequence (P05556 21-798, chain 2 of 2) above
T2 sequence (P13612 34-1032, chain 1 of 2): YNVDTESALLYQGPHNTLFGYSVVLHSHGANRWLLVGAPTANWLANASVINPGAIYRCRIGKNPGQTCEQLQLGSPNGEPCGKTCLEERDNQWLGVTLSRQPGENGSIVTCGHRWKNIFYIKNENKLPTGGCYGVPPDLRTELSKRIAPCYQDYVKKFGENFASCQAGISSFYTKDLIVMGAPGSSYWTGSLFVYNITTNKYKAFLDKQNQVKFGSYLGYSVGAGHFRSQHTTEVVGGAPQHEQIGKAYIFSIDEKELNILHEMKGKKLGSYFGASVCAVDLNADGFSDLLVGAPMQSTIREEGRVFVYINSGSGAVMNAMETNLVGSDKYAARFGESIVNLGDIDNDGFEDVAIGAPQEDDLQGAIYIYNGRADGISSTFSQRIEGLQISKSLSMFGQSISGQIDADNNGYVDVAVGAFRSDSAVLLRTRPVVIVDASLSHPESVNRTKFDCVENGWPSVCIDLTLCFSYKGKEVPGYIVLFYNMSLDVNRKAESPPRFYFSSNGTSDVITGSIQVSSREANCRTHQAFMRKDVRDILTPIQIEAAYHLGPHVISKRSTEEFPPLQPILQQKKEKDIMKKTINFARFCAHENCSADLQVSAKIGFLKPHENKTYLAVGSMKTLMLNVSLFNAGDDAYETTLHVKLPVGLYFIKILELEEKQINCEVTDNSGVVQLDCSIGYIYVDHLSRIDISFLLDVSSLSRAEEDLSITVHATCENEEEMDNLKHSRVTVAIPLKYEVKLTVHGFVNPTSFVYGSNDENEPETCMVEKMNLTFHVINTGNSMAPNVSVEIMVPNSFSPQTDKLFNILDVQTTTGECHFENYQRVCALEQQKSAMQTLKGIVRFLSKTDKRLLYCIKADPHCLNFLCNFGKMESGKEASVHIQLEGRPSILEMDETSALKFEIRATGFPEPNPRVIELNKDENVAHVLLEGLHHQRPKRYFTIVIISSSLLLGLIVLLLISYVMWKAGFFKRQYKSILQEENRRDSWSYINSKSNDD
T2 sequence (P05556 21-798, chain 2 of 2): as the sequence (P05556 21-798, chain 2 of 2) above

Row | Binder | Geo Mean on Macaque T-cells IgG detection [1] | % Inhibition of adhesion CS1 n = 1 (J6.77 Jurkat on GST-CS-1) [2] [%] | % Inhibition of adhesion CS1 n = 2 (J6.77 Jurkat on GST-CS-1) [2] [%] | % Inhibition of cell adhesion n = 1 (K562 on full length FN) [3] [%] | % Inhibition of cell adhesion n = 2 (K562 on full length FN) [3] [%] | % Inhibition of cell adhesion n = 3 (K562 on GST-FNIII(9-10), no pre-incubation) [3] [%] | % Inhibition of cell adhesion n = 4 (K562 on GST-FNIII(9-10), supernatant 1 in 10) [3] [%] | % Inhibition of cell adhesion n = 5 (K562 on GST-FNIII(9-10), supernatant 1 in 10) [3] [%] | Average % inhibition at 5 ug/ml (J6 adhesion to GST-CS-1) [4] [%] | Binding Geomean [5] | binding result [5] | IC50 ng/mL (K562 adhesion to GST-FNIII(9-10)) [6] [ng/mL]
1 | B1 | 13 | 31 | -8 | 96 | 100 | 103 | 91 | 84 | -12 | 2.94 | no binding | 97.8
2 | B2 | 12 | 31 | -5 | 97 | 94 | 96 | 86 | 87 |  | 3.11 | no binding | 
3 | B3 | 12 | 2 | 11 | 100 | 94 | 96 | 94 | 100 | -19 | 4.73 | no binding | 14.1
4 | B4 | 10 | 22 | 18 | 99 | 100 | 102 | 94 | 96 | 1 | 3.29 | no binding | 12.4
5 | B5 | 13 | 17 | 9 | 99 | 99 | 93 | 92 | 100 | -2 | 3.02 | no binding | 9
6 | B6 | 11 | 14 | -5 | 100 | 96 | 101 | 96 | 97 | 18 | 3.6 | no binding | 11.9
7 | B7 | 12 | 40 | 10 | 98 | 100 | 94 | 94 | 87 | 2 | 2.86 | no binding | 73.4
8 | B8 | 11 | 24 | 9 | 99 | 95 | 91 | 92 | 90 | -23 | 2.99 | no binding | 52.2
9 | B9 | 12 | 45 | 21 | 93 | 100 | 94 | 85 | 75 | -14 | 3.1 | no binding | 57
